Laboratory results reported in patent US7118877.
Read-outs that look alike come from different tables or passages of the source.

Tests used:
Ac-DEVD-Afc = test system: T1, Ac-DEVD-Afc
T1 sequence: DEVD

Ac-LEHD-Afc [1] = test system: T2, Ac-LEHD-Afc
T2 sequence: LEHD

Ac-IETD-Afc = test system: T3, Ac-IETD-Afc
T3 sequence: IETD

Ac-VEID-Afc = test system: T4, Ac-VEID-Afc
T4 sequence: VEID

Ac-WEHD-Afc = test system: T5, Ac-WEHD-Afc
T5 sequence: WEHD

Ac-LEHD-Afc [2] = target: T6, Ac-LEHD-Afc
T6 chain: LEHD

Molecule: Caspase 7
- Optimum substrate at pH 7.2 (rate of AFC release, fluorogenic cleavage assay) (Ac-DEVD-Afc): Ac-DEVD-Afc (SEQ ID NO:1)

Molecule: Caspase 2
- Optimum substrate at pH 7.2 (rate of AFC release, fluorogenic cleavage assay) (Ac-LEHD-Afc [1]): Ac-LEHD-Afc (SEQ ID NO:5)

Molecule: Caspase 10
- Optimum substrate at pH 7.2 (rate of AFC release, fluorogenic cleavage assay) (Ac-IETD-Afc): Ac-IETD-Afc (SEQ ID NO:2),
- Optimum substrate at pH 7.2 (rate of AFC release, fluorogenic cleavage assay) (Ac-LEHD-Afc [1]): Ac-LEHD-Afc (SEQ ID NO:5)

Molecule: Caspase 3
- Optimum substrate at pH 7.2 (rate of AFC release, fluorogenic cleavage assay) (Ac-DEVD-Afc): Ac-DEVD-Afc (SEQ ID NO:1)

Molecule: Caspase 8
- Optimum substrate at pH 7.2 (rate of AFC release, fluorogenic cleavage assay) (Ac-LEHD-Afc [1]): Ac-LEHD-Afc (SEQ ID NO:5

Molecule: Caspase 6
- Optimum substrate at pH 7.2 (rate of AFC release, fluorogenic cleavage assay) (Ac-IETD-Afc): Ac-IETD-Afc (SEQ ID NO:2)

Molecule: Caspase 1
- Optimum substrate at pH 7.2 (rate of AFC release, fluorogenic cleavage assay) (Ac-LEHD-Afc [1]): Ac-LEHD-Afc (SEQ ID NO:5),
- Optimum substrate at pH 7.2 (rate of AFC release, fluorogenic cleavage assay) (Ac-VEID-Afc): Ac-VEID-Afc (SEQ ID NO:6)
- Optimum substrate at pH 7.2 (rate of AFC release, fluorogenic cleavage assay) (Ac-WEHD-Afc): Ac-WEHD-Afc (SEQ ID NO:4),

B1: Caspase 9 (protein)
chain: MDEADRRLLRRCRLRLVEELQVDQLWDALLSRELFRPHMIEDIQRAGSGSRRDQARQLIIDLETRGSQALPLFISCLEDTGQDMLASFLRTNRQAAKLSKPTLENLTPVVLRPEIRKPEVLRPETPRPVDIGSGGFGDVGALESLRGNADLAYILSMEPCGHCLIINNVNFCRESGLRTRTGSNIDCEKLRRRFSSLHFMVEVKGDLTAKKMVLALLELAQQDHGALDCCVVVILSHGCQASHLQFPGAVYGTDGCPVSVEKIVNIFNGTSCPSLGGKPKLFFIQACGGEQKDHGFEVASTSPEDESPGSNPEPDATPFQEGLRTFDQLDAISSLPTPSDIFVSYSTFPGFVSWRDPKSGSWYVETLDDIFEQWAHSEDLQSLLLRVANAVSVKGIYKQMPGCFNFLRKKLFFKTS
- Optimum substrate at pH 7.2 (rate of AFC release, fluorogenic cleavage assay) (Ac-LEHD-Afc [2]): Ac-LEHD-Afc (SEQ ID NO:5
